Source: PMC6662825 (2019)

Molecular target: T1, MBP-ZCCHC8^91–211-(GS)3-eYFP (human, UniProt Q6NZY4 91-211)
T1 chain: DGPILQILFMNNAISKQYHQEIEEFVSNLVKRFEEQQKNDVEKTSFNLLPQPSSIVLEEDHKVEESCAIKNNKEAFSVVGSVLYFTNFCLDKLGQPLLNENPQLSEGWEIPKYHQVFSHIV
Assay: MST

B1: MTR4-KOW (domain or fragment)
chain: HKPKYCLPFLQPGRLVKVKNEGDDFGWGVVVNFSKKSNVKPNSGELDPLYVVEVLLRCSKESLKNSATEAAKPAKPDEKGEMQVVPVLVHLLSAISSVRLYIPKDLRPVDNRQSVLKSIQEVQKRFPDGIPLLDPIDDMGIQD
**Q.** How did the Kd turn out when B1 was run?
**A.** The Kd was 327 nM.
